Source: the DeepSol protein solubility set

Experiment: soluble on expression in E. coli; label from the status in PepcDB or PDB records

Question: Which “soluble on expression in E. coli” value does the source give for “MVKKSYVINWARDLANRGVGVNYDGAFGSQCVDLPFWILGKFFGRPISGNAIDLLNSAKAAGYQVIYDAPGVNPRVGDIFVMHSIAYDGKDYGHTGLVIEDSDGHSIKTIEQNVDGNADNLYVGGPARYRTRSFNGIIGWIRPPYENEILENKREETDMRDFFVITNSEYTFAGVHYAKGAVLHVSPTQKRAFWVIADQENFIKQVNKNIEYVEKNASPAFLQRIVEIYQVKFEGKNVH” here?
Answer: The value was “soluble”.

Question: For “MVKSIVILIETVTMKIPAVYSDGSFKTFNDSETTAQKLVDSGVVNTFAFGPTLVENGKVAVSENEEVGQDMADNPRTAIVVNEESDRSVHYIVIVSDGRTSESSGLTLYEMAELMKSYGVMTGYNLDVGDSSTMYSLEHHHHHH”, which “soluble on expression in E. coli” value is on record?
Answer: The value was “not soluble”.

Question: Which “soluble on expression in E. coli” value does the source give for “MVLAERDDRLLGFASFRRTEDFAHYQPQRADAPRAYICEAVVHPAAAGQGLGSALLEAVLAQLADEGIEDVYIDRHEENLASAGMMRKAGFV” here?
Answer: Its value is “soluble”.

Question: With “MVLKERHKKICLLPSYSRLAHYPGLLMLTTLIYRSHIRGDEPVKKIEEMVSIANRRNMRSDVTGILLFNGSHFFQLLEGPEEQVQMIYRAICQDPRHYNIVELLCDYAPARRFGKAGMELFDLRLHERDDVLQAVFDKGTSKFQLTYDDRALQFFRTFVLATEQSTYFEIPAEDSWLFIADGSDKELDSCTLSSNINDHFAFHPIVDPLSRRIIAFEAIVQKNEDSPSAIAVGQRKDEEIYTADLKSKALAFAMAHALKLGDKMISINLLPMTLVNKPDAVSFLLDEIKANALVPEQIIVEFTESEVISRFDEFAEAVKSLKAAGISVAIDHFGAGFAGLLLLSRFQPDRIKISQELITNVHKSGPRQAIIQAIMKCCTSLEIQVSAMGVATPEEWMWLESAGIEMFQGDLFSKAKLNGIPSVAWPEKK” as the sequence, how does the “soluble on expression in E. coli” value read?
Answer: The value was “not soluble”.

Question: With “MVMEYLVLEKRLKRLREVLEKRQKDLIVFADNVKNEHNFSAIVRTCDAVGVLYLYYYHAEGKKAKINEGITQGSHKWVFIEKVDNPVQKLLEFKNRGFQIVATWLSKESVNFREVDYTKPTVLVVGNELQGVSPEIVEIADKKIVIPMYGMAQSLNVSVATGIILYEAQRQREEKGMYSRPSLSEEEIQKILKKWAYEDVIKERKRTLSTS” as the sequence, how does the “soluble on expression in E. coli” value read?
Answer: The value was “soluble”.

Question: With “MVMIMRICIQPVGDVNDEILKFLKKKFGEVFGMCEILPKIDIPIYAYNFSRGQFNSTLILKSLPTVEDIVLGVTEVDIYADNLNFVFGEAELFGKRALISLARLRPEFYGLPPNKDVLKIRALKEAIHEIGHVLGLIHCENKRCVMSFSNSIIDVDLKDWRYCKKCLKKLQDRGIYISILEHHHHHH” as the sequence, how does the “soluble on expression in E. coli” value read?
Answer: The value was “not soluble”.

Question: Which “soluble on expression in E. coli” value does the source give for “MVMSSEGGEDRWVFGYGSLMWRPGFPFIDRRTAVLHGRRRAFCIYSVHHRGTYERPGLVLGLAPGGSVRGMAYRVAAAEWEGVYAYLREREQPTETYFETWREVKVDGGDKAPALVFLSDMKHSQWAGDLTLEQQAALIAGAVGLSGPNIDYLRDLVMHLHEDGVRDHAMEKLLKMVEAREAALEHHHHHH” here?
Answer: Its value is “not soluble”.

Question: For “MVNEYKKILLLKGFELMDDYHFTSIKSLLAYDLGLTTKMQEEYNRIKITDLMEKKFQGVACLDKLIELAKDMPSLKNLVNNLRKEKSKVAKKIKTQEKAPVKKINQEEVGLAAPAPTARNKLTSEARGRIPVAQKRKTPNKEKTEAKRNKVSQEQSKPPGPSGASTSAAVDHPPLPQTSSSTPSNTSFTPNQETQAQRQVDARRNVPQNDPVTVVVLKATAPFKYESPENGKSTMFHATVASKTQYFHVKVFDINLKEKFVRKKVITISDYSECKGVMEIKEASSVSDFNQNFEVPNRIIEIANKTPKISQLYKQASGTMVYGLFMLQKKSVHKKNTIYEIQDNTGSMDVVGSGKWHNIKCEKGDKLRLFCLQLRTVDRKLKLVCGSHSFIKVIKAKKNKEGPMNVN”, which “soluble on expression in E. coli” value is on record?
Answer: The value was “soluble”.

Question: With “MVNNEYQQLNTLVESDDEADLVIANLVKQLNELKQILVSLDNQEASATAVTDKKEEEYNQNQSSFHNFSKETLQKQAKRGFLLLERCSLVGLQQLELEYVNLLGRSFDSYQQKTELLNNLKELVDEHFSDTEKIINTLEKIFDVIGGSEYTPVLNSFFNKLLSDPDPIQREIGLRQFIITLRQRFKKLSQKIDSSLKQIETEAKIATEQVQNSEVMFGPPDIANDHELNLNWPDSETDAILSSMENELEAALLAKHQEEPPLIVTPPSLIKPTVSQPEVEVVTPTNNTNFQPQVDLKPTDLKKQQKKKPLNFITRPVFKSNLPPKLSKDDIVHYAHQLLEKNTHNE” as the sequence, how does the “soluble on expression in E. coli” value read?
Answer: Its value is “soluble”.

Question: With “MVPESHPRYKSLLNRDRIVEAFESGVLAKGGMIAHGRGETFDYLIGESTTDAALNSIKVSAALLVLAENPVISVNGNSVALAKDEFVELAKELNGKIEVNLFYRTTEREEKIKDVFESDINGGIVLLGIDNADKQIPGIDHLRGKVSESGIYTSDVVLVPLEDGDRAEALVKMGKTVIAIDLNPLSRTARKSTISIIDELTRCIPLITEYVREYKKMDRAELLKIVENYDNEENLRNILNLISKRLTSVDLEHHHHHH” as the sequence, how does the “soluble on expression in E. coli” value read?
Answer: Its value is “soluble”.

Question: Which “soluble on expression in E. coli” value does the source give for “MVQEAPAALPTEPGPSPVPAFLGKLWALVGDPGTDHLIRWSPSGTSFLVSDQSRFAKEVLPQYFKHSNMASFVRQLNMYGFRKVVSIEQGGLLRPERDHVEFQHPSFVRGREQLLERVRRKVPALRGDDGRWRPEDLGRLLGEVQALRGVQESTEARLRELRQQNEILWREVVTLRQSHGQQHRVIGKLIQCLFGPLQAGPSNAGGKRKLSLMLDEGSSCPTPAKFNTCPLPGALLQDPYFIQSPLPETNLGLSPHRARGPIISDIPEDSPSPEGTRLSPSSDGRREKGLALLKEEPASPGGDGEAGLALAPNECDFCVTAPPPLPVAVVQAILEGKGSFSPEGPRNAQQPEPGDPREIPDRGPLGLESGDRSPESLLPPMLLQPPQESVEPAGPLDVLGPSLQGREWTLMDLDMELSLMQPLVPERGEPELAVKGLNSPSPGKDPTLGAPLLLDVQAALGGPALGLPGALTIYSTPESRTASYLGPEASPSP” here?
Answer: Its value is “soluble”.

Question: Which “soluble on expression in E. coli” value does the source give for “MVQISDLPRDLTEEVLSRIPVTSMRAVRFTCKKWNTLSKDRSFTKKHLRGARAAAKKKQTKEFQVIMMIQFRVYLYSVNLLNPSIERIGKLISLDVEDHVDISKIFHCGGLLLCITKDISRLVVWNPYSGQTRWIKPRNSYHRLDRYALGYEEKNKSCRCYKILRFMDDYEDDRALRLIREFEIYDLNSDSWKVVNVTPDWDVEFYHRGLSLKGNTYWFAQEKLPPLPRGRVITISDMADFLLCFDFTRERFGPRLPLPFHSFVEDTVTLSSVRDKKLAVLFQPCSASTVKIWISRKIEPNAVSWRKVFLAVDMKSLTGFQFDINAASFFVDEKKKVAMVLDKDRFSYKFTRNIAYIIGKKGYFEKVDLGESTVSSCASLVCSYVPSSVQI” here?
Answer: Its value is “soluble”.

Question: Which “soluble on expression in E. coli” value does the source give for “MVQLFSAFDRETIERNLQEEKFDLVIVGGGITGAGIALDATSRGMSVALVEMGDFASGTSSRSTKLVHGGLRYLQQFEIKEVADLGKERAIVYENGPHVTTPEWMMLPFHKGGNMGKTTASFGIRLYDYLAGVKKNERRKILSAKETLAKNPFVKKDGLKGSGYYVEYRTDDARLTIEVMKKAVELGANAINYTKAEHFLYDDKKQVVGVTVTDRLTGKAYDIKGHRVINAAGPWVDKVRKLDYATNNKHLRLTKGIHLVIDKQKFPMEQAVYFDTPDGRMVFAIPRDKKVYVGTTDTVYDEAVINPKALESDHNYVIKAINYMFPDVHISEKDIESSWAGVRPLIYEEGKDPSEISRKDEVWFSESGLITMAGGKLTGYRKMAEKLLDGVSKTLSKETGKKYKPVQTKHLPISGGDIGGSEQLEAFLSKKAKEGNNRFGWTLEEGREIAKRFGSNIDQLFTYAQEHKDQNETTLPNSLYAELRYSIQHEAVTTPIDFLLRRTGYLLFDMPYLLEWKDAVVDEMAKQFHWSDDVKQTYIEELNIQINDAREPADWHDRLEHHHHHH” here?
Answer: Its value is “soluble”.

Question: For “MVQREKARDNFEGGCLAELIGSPRDWKCFLAVPDPLLGVQHWLHLWRPQTKDGNSLHRHGDQAWGKHRRQNSLKSPALSGHSIDYHFYPRLRCGMLIGPDKQAVASGLEVLVTSSTKILGQLFPDAAHFLEEASEFKAE”, which “soluble on expression in E. coli” value is on record?
Answer: Its value is “soluble”.

Question: With “MVRPEDFNSLELDNSLTDGETVHEMMAHKAGLTYNDFNILPGFINFGVHDVSLETNITKDLKIKAPLVSSPMDTVTESGMAIVMALYGGIGIIHGNFPKPEDQAAEVLKVKRFKQGYVMQPHCLSRDSTAFDMIQIKKKYGYTGAPVTEDGRVGSKLIGMVTSRDFDFITMDVAGQKGTPISDTNDVTPTTPITRIMVSVDQLHLGHINDAPELSQKKLKEHRLGKLPIVNDNGELCALLCRSDLLKARDYPMASYDSKGQLLCGAAVNTRGESQYTVDRVVEAGVDVLIIDSSNGSSTYQISMLRYIKEKHPHVQVIAGNVVTRAQAKLLIDQGADGLRIGMGSGSICITQDVMAVGRAQGTAVYDVARYANQRGIPIVADGGIRDVGYITKAISLGASAVMMGGLLAATTEAPGEYFWGPGGVRVKKYRGMGSLDAMEAHASSQDRYFTAHVFFSILSYF” as the sequence, how does the “soluble on expression in E. coli” value read?
Answer: The value was “not soluble”.

Question: For “MVRTYSPAFREAAVRMMISHREEYKCSRWAAAVAISEKIGASPNSIYAWFKKSTFETIESDDFDLAYYKERIERLESEIQRLQKTIKFLRTTIIILSNSLHFG”, which “soluble on expression in E. coli” value is on record?
Answer: Its value is “not soluble”.

Question: Which “soluble on expression in E. coli” value does the source give for “MVRVKICGITNLEDALFSVESGADAVGFVFYPKSKRYISPEDARRISVELPPFVFRVGVFVNEEPEKILDVASYVQLNAVQLHGEEPIELCRKIAERILVIKAVGVSNERDMERALNYREFPILLDTKTPEYGGSGKTFDWSLILPYRDRFRYLVLSGGLNPENVRSAIDVVRPFAVDVSSGVEAFPGKKDHDSIKMFIKNAKGL” here?
Answer: The value was “soluble”.

Question: Which “soluble on expression in E. coli” value does the source give for “MVSNSSITFKEFVDYWFEAYASTAVKPSTQKRYRQLLKPALRAIGNKPLNKVKPLDIQNIYIALAGTQSNCTILKLHRLLHEIFKHAQMWEYISDNPVKKVVPPTPEKKVFDLEHHHHHH” here?
Answer: The value was “not soluble”.

Question: With “MVSQIGLLLPLSGDGQILGTTIQSGFNDAKGNSTIPVQVFDTSMNSVQDIIAQAKQAGIKTLVGPLLKQNLDVILADPAQIQGMDVLALNATPNSRAIPQLCYYGLSPEDEAESAANKMWNDGVRNPLVAMPQNDLGQRVGNAFNVRWQQLAGTDANIRYYNLPADVTYFVQENNSNTTALYAVASPTELAEMKGYLTNIVPNLAIYASSRASASATNTNTDFIAQMNGVQFSDIPFFKDTNSPQYQKLAKSTGGEYQLMRLYAMGADAWLLINQFNELRQVPGYRLSGLTGILSADTNCNVERDMTWYQYQDGAIVPVVDHHHHHH” as the sequence, how does the “soluble on expression in E. coli” value read?
Answer: Its value is “soluble”.

Question: With “MVSRKRRAAQIESSRKGVASIRARCDMEASCSSSQENEASRASTSQCSSPKNLKMENVTILPKTLKLIHDDPKSQVIVSIQFEIEDTKKKISAAILNFNISKKANNAIRSERKRIVATILKTRKHVERFRRLWKKEKKKKEHSEILYKKSQLSKQETIAKFPPMFR” as the sequence, how does the “soluble on expression in E. coli” value read?
Answer: The value was “not soluble”.

Question: With “MVSVSEIRKAQRAEGPATILAIGTANPANCVEQSTYPDFYFKITNSEHKTELKEKFQRMCDKSMIKRRYMYLTEEILKENPNVCEYMAPSLDARQDMVVVEVPRLGKEAAVKAIKEWGQPKSKITHLIVCTTSGVDMPGADYQLTKLLGLRPYVKRYMMYQQGAFAGGTVLRLAKDLAENNKGARVLVVCSEVTAVTFRGPSDTHLDSLVGQALFGDGAAALIVGSDPVPEIEKPIFEMVWTAQTIAPDSEGAIDGHLREAGLTFHLLKDVPGIVSKNITKALVEAFEPLGISDYNSIFWIAHPGGPAILDQVEQKLALKPEKMNATREVLSEYGNMSSACVLFILDEMRKKSTQNGLKTTGEGLEWGVLFGFGPGLTIETVVLRSVAI” as the sequence, how does the “soluble on expression in E. coli” value read?
Answer: The value was “soluble”.
